The values that follow come from the nanobody polyreactivity screen of Harvey et al. (2022).

This series is described as follows: yeast display, Sf9 membrane polyspecificity reagent, FACS + sequencing; frameworks hold sequencing errors. An outline of the steps:
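A synthetic nanobody library was expressed on Saccharomyces cerevisiae BJ5465 by galactose induction for 36–48 hours. The library was stained for 1 hour at 4 °C with 10% biotinylated, detergent-solubilized Sf9 membrane reagent and enriched with streptavidin microbeads before FACS. Low and high (top ~1%) gates were set on anti-HA fluorescence for expression and streptavidin fluorescence for reagent binding, and each polyreactivity label reflects the gate of origin.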
Take “QVQLVESVGGLVQAGGSLRLSCAATGSIFSYYAMGWYRQAPGKERELVAAISVSGGRTYYADSVNGRFTISRDNAKNTVYLQMNSLKPEDTAVYYCATRIRSYYYWGQGTQVTVSS”: the “polyreactivity (PSR sort gate)” value was “high polyreactivity”.
The result for “QVQLVESVGGLVQAGGSLRLSCAAYGRTFAPNAMLWYRQAPGKESELVAAISWSGTSTYYADSVKGRFTISRDNSKNTVYLQMYSLKPEDTAFYDCAADMEGRVGSPWTYDYWGQGTQVTVSS” reads “low polyreactivity”; that for “QVQLVESVGGLVQAGGSLRLSCAGSGRIFRNYAMGWYRQAPGKERELVAAISDSSGSTYYADSVKGRFTISRDNAKNTVYLQMNILKPEHTAVYFCRYYFGSGYYYWGQGTQVTVSS”, “high polyreactivity”.
The result for “QVQLVESVGGLVQAGGSLRLSCASSGITFWYYAMGWYRQAPGKERELVAAISYSGDSTYYADSVKGRFTISRDNAKNTVYLQMNSLKPEDTAVYYCAARTRAGAWTSKYHDYWGQGTQGTVSS” reads “high polyreactivity”; that for “QVQLVESVGGLVQAGGSLRLSCASSGYIFAYYGMGWYRQAPGNERELVAAISWSGGSTDYADSVKGRFTISRDNAKNTGYLQMNRLKPEDTAVYYCATRKYADRESDYWGQVTQVTVSS”, “high polyreactivity”; that for “QVQLVESVGGLVQAGGSLRLSCPASGFIFSGHTMGWYRQAPGKERELVAAITSGGGRTYYADSVKGRFTISRDNAKNTVYLQMNSLKPEDTAVYYCNTAFVYEYDYWGQGTQVTVSS”, “high polyreactivity”.
The same measure for “QVQLVESVGGLVQAGGSLRLSCSASGSTFTGYAMGWYRQARGNEREFVATITKRGGRTYYADSVKGRFTISRDNAKNTVYLQMNSLKPEDSAVYYCARDQGKLFVPYDYWGKGTQVTVSS”: “high polyreactivity”.
“QVQLVESVGGLVQAGGSLRLSCSASGTFRRNVKGWYRQAPGKERELVAAIRSGGSTYYADSVKGRFTISRDNAKHTVFLQMNSLKPEDTAVYYCASDRPGHSFYDEWYRYDSWGQGTQVTVSS”: the “polyreactivity (PSR sort gate)” value was “low polyreactivity”.
The same measure for “QVQLVESVGGLVQAGGSLRLSGAASGSTFGRYAMGWSRQAPGKEREFVANISWSDGSTNYADSVKGRFTISRDHAKNTVYFQMNSLKPEDTAVYYCATGLGYTAFGKEVYDWHDYWGQGTQVTVSS”: “low polyreactivity”; for “QVQLVESVGGLVQAGGSLRLSSDASGRTFYSNAMGWYREAPGKERELVAGMNIGGGSTYYADSVKGRFTISRDNAKNTVYLQMYSLIPEATAVYYCAALRWGAYRHGYWGQGTQVTVSW”: “high polyreactivity”; for “QVQLVESVGGLVQAGGSLRLTCAACGVTFSYNTMGWYRQAPGKERELVAAISRSGGRTYYADSVKGRFTISRDNAKNTVYLQMNSLKPEDTAVYYCARYSVTGFGANSGPEMDYWGHGTQVTVSS”: “high polyreactivity”.
In the case of “QVQLVESVGGLVQAGGSLRLTCAASVITQRFNSMGWYRQAPGKEMELVAAISSGTNTYYADSVKGRFAISRDNAKNTVYLQMNSLKPEDTAVYYCADTLGYYTSGRSYQRYDYWGHGTQVTVSS”, the “polyreactivity (PSR sort gate)” value is given as “low polyreactivity”.
The same measure for “QVQLVESVGGLVQAGGSLRLTCAASVSIIRYNAMGWYRQAPGKERELVAAITKGAGSTYYADSVKGRFTISRDNAKNTVYLQMNSLKPEDTAVYYCAAAGGTSRRTIYTAFYYWGQGTQVTVSS”: “high polyreactivity”; for “QVQLVESVGGLVQAGGSLSLSCAASGRIFVWYTMGWYRQAPGKEREFVASINGGGNTNYADSVKGRFTISRDNAKNTVYLQMNSLKPEDTADYYCAREYFGEMDYWGHGTQVTVSS”: “low polyreactivity”; for “QVQLVESVGGLVQAGGSLSLSSAASGRTFGNYAMGWYRQAPGKERELVADITRRGGSTSYADSVKGRFTISRDNAKNTVYLQMTSLKTEDTAVYYCNKAAEGSSHYDYWGLGTQVTVSS”: “low polyreactivity”.
For “QVQLVESVGGLVQAGGTLRLSCAATEGTIRSNAMGWYRQAPGKESELVAAISRGGSTYYADSVKGRFTISRDNAKNTVYLQMNSLKPEDTAVYYCNVAYYRSGHDNDYWGQGTQVTVSS”, the “polyreactivity (PSR sort gate)” value is reported as “high polyreactivity”.
The same measure for “QVQLVESVGGLVQAGVSLRLSSPATGSTIYFYAMGWYRQEPGKERELVAAISGSGGRKYYADSVKGRFTISRDNAKNTVYLQMNSLKPEDTAVYYCAAEWFPYSEREFLYYYWGQGTQVTVSS”: “high polyreactivity”.
The result for “QVQLVESVGGLVQAVGSLRLSCAASGNTFYRYAMGWYIQAPGKERELVAAITWRSTYYADSVKGRFTISRDNAKNTVYLQMNSLKPEDTAVYYCAVSVRPYVIYLYDYWGQGTQVTVSS” reads “high polyreactivity”.
The same measure for “QVQLVESVGGLVQEGGSLRLSCAASGSIRYAMGRYRQAPGKERELDAAISGRGGNTYYADSVKGSFTISRDNAKNTVYLQMNSLKPEDTAVYYCATRGNRVLTGTRYDYWGQGTQITVSS”: “high polyreactivity”.
As to “QVQLVESVGGVVQAGGSLRLSCAASGFTFKYYDMGWYRQAPGKERELVAAISRRGGSTSYADSVKGRFTISRDNAKNTVYLQMNSLKPEDTAVYYCAADSSFERSSDYWGHGTQVTVSS”, the “polyreactivity (PSR sort gate)” value is reported as “high polyreactivity”.
On to “QVQLVESVGSLVQAGVSLRLSCAASGFILYANAMGWYRQAPGKERELGAAISRGTSTYYADSVKGRFTISRDNAKNTVYLQMTSLKPEDTAVYYCATSSYRPWGGYYWGQGTQVTVSS”, for which the “polyreactivity (PSR sort gate)” value was “high polyreactivity”.
The result for “QVQLVESVGVLDQAGGSLRLSCAASGFTFVRYAMGWYRQAPGKERELVAAISGSGGRTYYADSVKGRFTISRDTAKNTVYLQLNSLKPEDTAVYYCAAVYLVTRGARYEYWGQGTQVTVSS” reads “high polyreactivity”; that for “QVQLVESVGVLVQAGGSLRLSCAASGRTFYRNAVGWYRQAPGKERELVAAISRSGTRTYYADSVKGRFTISRDNATNTVYLQMNSLKPEDTAVYYCNALRVDGGDYWGQGTQVTVSS”, “high polyreactivity”.
Regarding “QVQLVESVRGLVQAGGSLRLSCAASGSTFDNNAMGWYRQAPGKEREFVAAITYSGGGSTSYADSVKGRFTISRDNAKNTVYLQMNSLKPEDPAVYDCAAREFETDGYSLVAYNYWGQGTQVTVSS”, the “polyreactivity (PSR sort gate)” value was “low polyreactivity”.
The same measure for “QVQLVESVRGSVQAGGSLRLSCAASGSTFYENAMGWYRPAPGKVRELVAAITWSGGRTYYADSVKGRFTISRDNAKNTVYLQMYSLKAEDTAVYYCNARARSRKFYYWGQGTQVTVSS”: “high polyreactivity”.
The result for “QVQLVESVVGLVQAGGSLRLSCAASGSTFLPYTMGWYRQAPGKETELVAGISGSGPRTYYADSVKGRFTISRDNAKNTVYLQMNSLKPEDTAVYYCAKKSSYRYGYWGQGTQVTVSS” reads “high polyreactivity”; that for “QVQLVESWAGLVQAGGSLRLSCAASGRTFAYNAMGGYRQAPGSERELVAAITWSGDSTYYADSVKGRFTISRDNAKKTVYLQMNSQKPEDTAVNYCAAGLVFHYYAPKSYYLGYDYWGQGTQVTVSS”, “low polyreactivity”; that for “QVQLVESWGCLVQAGGSLRLSCAASGFTFESNAMGWYRQAPGKERELVAAITSSGGRTYYADSVKGRFTISRVNAKNTVYLQMNSLNPEDSAVYYCAATGKAPRESGGVYSMDWGQGTQVTVSS”, “low polyreactivity”.
The result for “QVQLVESWGCLVQAGGSLRLSCAASRSTFLSYAMGWDRQAPGKERELVAAISWSGGRTYYADSVKGRFTISRDHAKNTVYLQMNSLKPDDSAVYYCNAGQGYRAPLYNLYDYWGQGTQVTVSS” reads “low polyreactivity”; that for “QVQLVESWGGLDQAGGSLRLSCAASGIIFQYYAMGWYRQAPGKERELVAAISWSGGSTYYADSVKGRFTISRDNAKNTVYLQMNSLKPEDTAVYYCAARSRSYWPYEGDYWGQGSQVTVSS”, “low polyreactivity”.
For the sequence “QVQLVESWGGLDQAGGSLRLSCAASGRTIRRYAMGCYRQAPGKERELVASISTSGGSTNADSVKGRFTISRDNSKNTVYLQMNSLKPEDTAVYYCAVRYPRYVRNGDYWGQGTQVTVSS”, the “polyreactivity (PSR sort gate)” value is “high polyreactivity”.
The result for “QVQLVESWGGLVHAGGSLPLSCADSGITFFYYAMGWYRQAPGKEREFVAAISTSGGRTYYADSVKGRFTISRDNAKNTVYLQMNSLKPEDTAVYYCAARSRVPPAGPRYDYWGQGTQVTVSS” reads “high polyreactivity”.
The result for “QVQLVESWGGLVQAGCSLRLSCAPSGSIFRTNAMGWYREAPGKQRELLAAITGSGGSTNYADSVKGRFTISRDNAKNTVYLQMNSLKPEDTADYYCAAEFGSLLSPYNYYYWGQGTQVTVSS” reads “low polyreactivity”; that for “QVQLVESWGGLVQAGGNLRLSCAASGFIFTRYAMGWYRPAPGTERELVAAISTSGDRTYYADSVKGRFTISRDNAKNTVYLQMNSLKPEDTAVYYCAVVRPRSVVRYDYWGQGTQVTVSS”, “high polyreactivity”.
The result for “QVQLVESWGGLVQAGGRLRLSCAASGIIFHRNAMGWYRQAPGKQRELVAAISERGGSTYYADSVKGRFTISRDNAKNTVYLQMNSLKPEDTAVYYCIADGFYRGGYWGQGTQVTVSS” reads “low polyreactivity”; that for “QVQLVESWGGLVQAGGSHRLSCAASGRTFGIYAMGWYRQAPGKERELVATISWRGGSTYYADSVKGRFTISRDNAKNTVYLQMNSLKPEDTAVYYCAAGYYPYWGQGTQVTVSS”, “low polyreactivity”.
“QVQLVESWGGLVQAGGSLRLRCAASGSTSLGYAMGWYRQAPGKERELVASISWTGGGKYYADSVKGRFTISRDNAKNTVYLQMNSLKPEDTAVYYCAADLTGYHPYIYGYWGQVTQVTVSS”: the “polyreactivity (PSR sort gate)” value is listed as “low polyreactivity”.
The same measure for “QVQLVESWGGLVQAGGSLRLSCAASGFIFRYYAMGWYRQAPGKERELVAAISWSGGSTYYADSVKGRFTISRDNAKYTVYLQMNSLKPVDTAVYYCAADKRGSVYLSSFWMDYWGQGSQVTVSS”: “low polyreactivity”; for “QVQLVESWGGLVQAGGSLRLSCAASGFIMQWYAMGWDRQAPGKERELVAGISSGTSTYYADSVKGRFTISRDNAKNTVYFQMNSLKAEDTAVYYCTWFVFDPEDYWGQGTQVTVSS”: “low polyreactivity”; for “QVQLVESWGGLVQAGGSLRLSCAASGFTFTGYAMGWYRQAPGKERELVAAISQSGGSTYADSVKGRFTISRDNAKNTVYLQMNSLKPEDTAVYYCAAVWFLLTEYDYWGQGTQVTVSS”: “low polyreactivity”.
Turning to “QVQLVESWGGLVQAGGSLRLSCAASGIIFAAYAMGWYRQAPGKERELVATITSSGGSTFYADSVKGRFTISRDNAKNTVYLQMNSLKPEDTAVYYCAADTWGLWFWGPLFSKYGYWGQGTQVTVSS”, the “polyreactivity (PSR sort gate)” value is given as “low polyreactivity”.
